Earlier results in PMC9256959.

Target: AMH mature ligand mature domain (Homo sapiens) (UniProt P03971)

In the case of “AMH prodomain prodomain (from UniProt P03971)”, the Kd is given as 0.4 pM.
